Test results: the supplement of paper PMC9233669
Variants at the floor of the assay were thinned out.

What was measured:
biotinyl-Met-oxazolone = test: self-aminoacylation, catalytic enhancement (BMO) (fold over background); higher = more active; k-Seq, kA / k0A0; sequences stand for … in GGGAAUGGAUCCACAUCUACGAAUUC…UUCACUGCAGACUUGACGAAGCUG
Procedure, shortened: (§1)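 Mutagenized RNA pools (0.43 μM; 21-nt variable region) were treated with 2–1250 μM of each biotinyl-aminoacyl-oxazolone. Conditions were 50 μL HEPES/NaCl/KCl/MgCl2/CaCl2 buffer, 5% acetonitrile, pH 6.9–7.0, room temperature, 90 minutes. Catalytic enhancement, the median kA relative to the uncatalyzed rate, was derived from streptavidin capture, qPCR and Illumina sequencing.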

biotinyl-Trp-oxazolone = test: self-aminoacylation, catalytic enhancement (BWO) (fold over background); higher = more active; k-Seq, kA / k0A0; sequences stand for … in GGGAAUGGAUCCACAUCUACGAAUUC…UUCACUGCAGACUUGACGAAGCUG
Procedure, shortened: as §1

biotinyl-Leu-oxazolone = test: self-aminoacylation, catalytic enhancement (BLO) (fold over background); higher = more active; k-Seq, kA / k0A0; sequences stand for … in GGGAAUGGAUCCACAUCUACGAAUUC…UUCACUGCAGACUUGACGAAGCUG
Procedure, shortened: as §1

biotinyl-Phe-oxazolone = test: self-aminoacylation, catalytic enhancement (BFO) (fold over background); higher = more active; k-Seq, kA / k0A0; sequences stand for … in GGGAAUGGAUCCACAUCUACGAAUUC…UUCACUGCAGACUUGACGAAGCUG
Procedure, shortened: as §1

biotinyl-Val-oxazolone = test: self-aminoacylation, catalytic enhancement (BVO) (fold over background); higher = more active; k-Seq, kA / k0A0; sequences stand for … in GGGAAUGGAUCCACAUCUACGAAUUC…UUCACUGCAGACUUGACGAAGCUG
Procedure, shortened: as §1

biotinyl-Ile-oxazolone = test: self-aminoacylation, catalytic enhancement (BIO) (fold over background); higher = more active; k-Seq, kA / k0A0; sequences stand for … in GGGAAUGGAUCCACAUCUACGAAUUC…UUCACUGCAGACUUGACGAAGCUG
Procedure, shortened: as §1

Sequence: UUUACCCUAGUCAUCGAGUGA [Fam2.1 aminoacylation ribozyme variant]
- self-aminoacylation (biotinyl-Met-oxazolone): 5.76
- self-aminoacylation (biotinyl-Trp-oxazolone): 7.33
- self-aminoacylation (biotinyl-Leu-oxazolone): 5.04
- self-aminoacylation (biotinyl-Phe-oxazolone): 17.3
- self-aminoacylation (biotinyl-Val-oxazolone): 3.09
- self-aminoacylation (biotinyl-Ile-oxazolone): 2.79

Sequence: AUUCUCCUAGGUCAACGGGUG [Fam2.2 aminoacylation ribozyme variant]
- self-aminoacylation (biotinyl-Met-oxazolone): 6.57
- self-aminoacylation (biotinyl-Trp-oxazolone): 5.38
- self-aminoacylation (biotinyl-Leu-oxazolone): 8.2
- self-aminoacylation (biotinyl-Phe-oxazolone): 46.7
- self-aminoacylation (biotinyl-Val-oxazolone): 3.61
- self-aminoacylation (biotinyl-Ile-oxazolone): 3.79

Sequence: AUUCACCUAGUACAUCGGGUG [Fam2.2 aminoacylation ribozyme variant]
- self-aminoacylation (biotinyl-Met-oxazolone): 2.21
- self-aminoacylation (biotinyl-Trp-oxazolone): 2.21
- self-aminoacylation (biotinyl-Leu-oxazolone): 2.71
- self-aminoacylation (biotinyl-Phe-oxazolone): 10.4
- self-aminoacylation (biotinyl-Val-oxazolone): 1.65
- self-aminoacylation (biotinyl-Ile-oxazolone): 1.55

Sequence: CUUCACCUAGGUCAUCGGAUG [Fam2.2 aminoacylation ribozyme variant]
- self-aminoacylation (biotinyl-Met-oxazolone): 0.842
- self-aminoacylation (biotinyl-Trp-oxazolone): 0.921
- self-aminoacylation (biotinyl-Leu-oxazolone): 0.891
- self-aminoacylation (biotinyl-Phe-oxazolone): 1
- self-aminoacylation (biotinyl-Val-oxazolone): 1.18
- self-aminoacylation (biotinyl-Ile-oxazolone): 1.06

Sequence: AUUACCCUGUUCAUCGAGUGA [Fam2.1 aminoacylation ribozyme variant]
- self-aminoacylation (biotinyl-Met-oxazolone): 5.57
- self-aminoacylation (biotinyl-Trp-oxazolone): 7.34
- self-aminoacylation (biotinyl-Leu-oxazolone): 5.44
- self-aminoacylation (biotinyl-Phe-oxazolone): 16.6
- self-aminoacylation (biotinyl-Val-oxazolone): 3.22
- self-aminoacylation (biotinyl-Ile-oxazolone): 2.97

Sequence: CUACUUCGAACAACCGGUCUG [Fam1A.1 aminoacylation ribozyme variant]
- self-aminoacylation (biotinyl-Met-oxazolone): 0.734
- self-aminoacylation (biotinyl-Trp-oxazolone): 0.949
- self-aminoacylation (biotinyl-Leu-oxazolone): 0.836
- self-aminoacylation (biotinyl-Phe-oxazolone): 0.394
- self-aminoacylation (biotinyl-Val-oxazolone): 1.21
- self-aminoacylation (biotinyl-Ile-oxazolone): 0.822

Sequence: AUUUACCUAGGUCAUCGAGUG [Fam2.2 aminoacylation ribozyme variant]
- self-aminoacylation (biotinyl-Met-oxazolone): 9.76
- self-aminoacylation (biotinyl-Trp-oxazolone): 5.73
- self-aminoacylation (biotinyl-Leu-oxazolone): 12.7
- self-aminoacylation (biotinyl-Phe-oxazolone): 18.5
- self-aminoacylation (biotinyl-Val-oxazolone): 5.4
- self-aminoacylation (biotinyl-Ile-oxazolone): 6.62

Sequence: AUUAACCUAGGUCAUCGAGUG [Fam2.2 aminoacylation ribozyme variant]
- self-aminoacylation (biotinyl-Met-oxazolone): 8.83
- self-aminoacylation (biotinyl-Trp-oxazolone): 4.39
- self-aminoacylation (biotinyl-Leu-oxazolone): 11.7
- self-aminoacylation (biotinyl-Phe-oxazolone): 17.9
- self-aminoacylation (biotinyl-Val-oxazolone): 5.78
- self-aminoacylation (biotinyl-Ile-oxazolone): 7.02

Sequence: UUUACCCGGGUCAUCGAGUGA [Fam2.1 aminoacylation ribozyme variant]
- self-aminoacylation (biotinyl-Met-oxazolone): 7.15
- self-aminoacylation (biotinyl-Trp-oxazolone): 9.17
- self-aminoacylation (biotinyl-Leu-oxazolone): 7.17
- self-aminoacylation (biotinyl-Phe-oxazolone): 43.1
- self-aminoacylation (biotinyl-Val-oxazolone): 4.02
- self-aminoacylation (biotinyl-Ile-oxazolone): 3.4

Sequence: CUACUUCAAACAAUCGGUAAG [Fam1A.1 aminoacylation ribozyme variant]
- self-aminoacylation (biotinyl-Met-oxazolone): 0.454
- self-aminoacylation (biotinyl-Trp-oxazolone): 0.835
- self-aminoacylation (biotinyl-Leu-oxazolone): 0.448
- self-aminoacylation (biotinyl-Phe-oxazolone): 1.29
- self-aminoacylation (biotinyl-Val-oxazolone): 0.662
- self-aminoacylation (biotinyl-Ile-oxazolone): 0.516

Sequence: AAGAUUGCUAAUAGUCCCAAG [Fam3.1 aminoacylation ribozyme variant]
- self-aminoacylation (biotinyl-Met-oxazolone): 0.597
- self-aminoacylation (biotinyl-Trp-oxazolone): 0.756
- self-aminoacylation (biotinyl-Leu-oxazolone): 0.778
- self-aminoacylation (biotinyl-Phe-oxazolone): 2.39
- self-aminoacylation (biotinyl-Val-oxazolone): 0.756
- self-aminoacylation (biotinyl-Ile-oxazolone): 1.28

Sequence: UCACACUUCGAGCAAUCGGUC [Fam1B.1 aminoacylation ribozyme variant]
- self-aminoacylation (biotinyl-Met-oxazolone): 0.953
- self-aminoacylation (biotinyl-Trp-oxazolone): 1.12
- self-aminoacylation (biotinyl-Leu-oxazolone): 0.931
- self-aminoacylation (biotinyl-Phe-oxazolone): 1.23
- self-aminoacylation (biotinyl-Val-oxazolone): 1.05
- self-aminoacylation (biotinyl-Ile-oxazolone): 0.91

Sequence: AUGUCCCUGGUCAUCGAGUGA [Fam2.1 aminoacylation ribozyme variant]
- self-aminoacylation (biotinyl-Met-oxazolone): 44.2
- self-aminoacylation (biotinyl-Trp-oxazolone): 41.4
- self-aminoacylation (biotinyl-Leu-oxazolone): 40.9
- self-aminoacylation (biotinyl-Phe-oxazolone): 246
- self-aminoacylation (biotinyl-Val-oxazolone): 17.2
- self-aminoacylation (biotinyl-Ile-oxazolone): 15.1

Sequence: AUACUUCAUACAAUCGGUCUG [Fam1A.1 aminoacylation ribozyme variant]
- self-aminoacylation (biotinyl-Met-oxazolone): 0.981
- self-aminoacylation (biotinyl-Trp-oxazolone): 0.952
- self-aminoacylation (biotinyl-Leu-oxazolone): 0.874
- self-aminoacylation (biotinyl-Phe-oxazolone): 1.1
- self-aminoacylation (biotinyl-Val-oxazolone): 0.939
- self-aminoacylation (biotinyl-Ile-oxazolone): 1.02

Sequence: CCACACUCCAAGCAAUCGGAC [Fam1B.1 aminoacylation ribozyme variant]
- self-aminoacylation (biotinyl-Met-oxazolone): 0.74
- self-aminoacylation (biotinyl-Trp-oxazolone): 0.574
- self-aminoacylation (biotinyl-Leu-oxazolone): 1.37
- self-aminoacylation (biotinyl-Phe-oxazolone): 0.729
- self-aminoacylation (biotinyl-Val-oxazolone): 0.937
- self-aminoacylation (biotinyl-Ile-oxazolone): 1.09

Sequence: AAGUUUGUUAAUUGUCGCAAG [Fam3.1 aminoacylation ribozyme variant]
- self-aminoacylation (biotinyl-Met-oxazolone): 0.992
- self-aminoacylation (biotinyl-Trp-oxazolone): 0.92
- self-aminoacylation (biotinyl-Leu-oxazolone): 0.933
- self-aminoacylation (biotinyl-Phe-oxazolone): 0.994
- self-aminoacylation (biotinyl-Val-oxazolone): 0.926
- self-aminoacylation (biotinyl-Ile-oxazolone): 1.09

Sequence: AUUCACCUCGGUCAGCGGGUG [Fam2.2 aminoacylation ribozyme variant]
- self-aminoacylation (biotinyl-Met-oxazolone): 4.51
- self-aminoacylation (biotinyl-Trp-oxazolone): 4.8
- self-aminoacylation (biotinyl-Leu-oxazolone): 5.84
- self-aminoacylation (biotinyl-Phe-oxazolone): 28.3
- self-aminoacylation (biotinyl-Val-oxazolone): 3.37
- self-aminoacylation (biotinyl-Ile-oxazolone): 3.13

Sequence: AAGUUUGCUCAUUGUCGCAAG [Fam3.1 aminoacylation ribozyme variant]
- self-aminoacylation (biotinyl-Met-oxazolone): 1.09
- self-aminoacylation (biotinyl-Trp-oxazolone): 1.89
- self-aminoacylation (biotinyl-Leu-oxazolone): 0.923
- self-aminoacylation (biotinyl-Phe-oxazolone): 3
- self-aminoacylation (biotinyl-Val-oxazolone): 0.968
- self-aminoacylation (biotinyl-Ile-oxazolone): 0.875

Sequence: CUUCACUUAGGUCAUCGGGUG [Fam2.2 aminoacylation ribozyme variant]
- self-aminoacylation (biotinyl-Met-oxazolone): 4.3
- self-aminoacylation (biotinyl-Trp-oxazolone): 5.12
- self-aminoacylation (biotinyl-Leu-oxazolone): 5.55
- self-aminoacylation (biotinyl-Phe-oxazolone): 23.4
- self-aminoacylation (biotinyl-Val-oxazolone): 2.8
- self-aminoacylation (biotinyl-Ile-oxazolone): 2.82

Sequence: ACUGCCCUGGUCAUCGAGUGA [Fam2.1 aminoacylation ribozyme variant]
- self-aminoacylation (biotinyl-Met-oxazolone): 36
- self-aminoacylation (biotinyl-Trp-oxazolone): 37.1
- self-aminoacylation (biotinyl-Leu-oxazolone): 34.1
- self-aminoacylation (biotinyl-Phe-oxazolone): 269
- self-aminoacylation (biotinyl-Val-oxazolone): 14.9
- self-aminoacylation (biotinyl-Ile-oxazolone): 13.4

Sequence: CCACUUCAAACAAUCGGGCUG [Fam1A.1 aminoacylation ribozyme variant]
- self-aminoacylation (biotinyl-Met-oxazolone): 2.13
- self-aminoacylation (biotinyl-Trp-oxazolone): 27.2
- self-aminoacylation (biotinyl-Leu-oxazolone): 2.63
- self-aminoacylation (biotinyl-Phe-oxazolone): 27.3
- self-aminoacylation (biotinyl-Val-oxazolone): 3.05
- self-aminoacylation (biotinyl-Ile-oxazolone): 2.12

Sequence: AAGUUUGCUAACAGUCACAAG [Fam3.1 aminoacylation ribozyme variant]
- self-aminoacylation (biotinyl-Met-oxazolone): 1.04
- self-aminoacylation (biotinyl-Trp-oxazolone): 1.06
- self-aminoacylation (biotinyl-Leu-oxazolone): 1.12
- self-aminoacylation (biotinyl-Phe-oxazolone): 2.73
- self-aminoacylation (biotinyl-Val-oxazolone): 0.942
- self-aminoacylation (biotinyl-Ile-oxazolone): 0.92

Sequence: AUGCACCUGGGUCAUCGGGUG [Fam2.2 aminoacylation ribozyme variant]
- self-aminoacylation (biotinyl-Met-oxazolone): 4.33
- self-aminoacylation (biotinyl-Trp-oxazolone): 3.63
- self-aminoacylation (biotinyl-Leu-oxazolone): 3.18
- self-aminoacylation (biotinyl-Phe-oxazolone): 21.2
- self-aminoacylation (biotinyl-Val-oxazolone): 3.8
- self-aminoacylation (biotinyl-Ile-oxazolone): 3.37

Sequence: CUACUUCAAACAAUCGCCCUG [Fam1A.1 aminoacylation ribozyme variant]
- self-aminoacylation (biotinyl-Met-oxazolone): 1.19
- self-aminoacylation (biotinyl-Trp-oxazolone): 0.581
- self-aminoacylation (biotinyl-Leu-oxazolone): 0.959
- self-aminoacylation (biotinyl-Phe-oxazolone): 0.818
- self-aminoacylation (biotinyl-Val-oxazolone): 1.2
- self-aminoacylation (biotinyl-Ile-oxazolone): 1.05

Sequence: GAGUUUGCUAACAGUCGCAAG [Fam3.1 aminoacylation ribozyme variant]
- self-aminoacylation (biotinyl-Met-oxazolone): 1.62
- self-aminoacylation (biotinyl-Trp-oxazolone): 5.6
- self-aminoacylation (biotinyl-Leu-oxazolone): 1.3
- self-aminoacylation (biotinyl-Phe-oxazolone): 10.7
- self-aminoacylation (biotinyl-Val-oxazolone): 1.41
- self-aminoacylation (biotinyl-Ile-oxazolone): 1.4

Sequence: CCACACUUCUAACAAUCGGUC [Fam1B.1 aminoacylation ribozyme variant]
- self-aminoacylation (biotinyl-Met-oxazolone): 0.619
- self-aminoacylation (biotinyl-Trp-oxazolone): 0.618
- self-aminoacylation (biotinyl-Leu-oxazolone): 0.69
- self-aminoacylation (biotinyl-Phe-oxazolone): 0.614
- self-aminoacylation (biotinyl-Val-oxazolone): 0.798
- self-aminoacylation (biotinyl-Ile-oxazolone): 0.797
